The supplement of paper PMC12042874
± gives the uncertainty stated by the source.

Experiment: amyloid nucleation score (Sup35N fusion, yeast selection) (log enrichment); library NNK2; higher = more nucleation; inactive = no reads after selection
In short: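 Psi-negative yeast expressed Sup35N fused to peptides of 20 random codons. They were induced 24 hours with 100 μM copper sulfate, grown 7 days at 30°C without adenine and uracil, and their plasmid inserts from input and output were Illumina-sequenced. The nucleation score is the DiMSum log enrichment of output over input reads, centred on the mode score of non-aggregating sequences. Sequences with under 100 input reads were excluded.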

Substance	amyloid nucleation score
FAFMITPCMLTSRMFSYGHA	-0.18 ± 0.36
YFVEYSW	0.542 ± 0.47
SYSLRFWYIPVADFWLL	-0.938 ± 0.36
FPSVLSFWKTMSVCGDHPYP	-0.686 ± 0.3
GHVCKFHTLHWR	-1.17 ± 0.61
VHYQLKSIRMDSM	0.484 ± 0.19
FLRLGLAITLISV	inactive
EDFVLWLMW	-0.641 ± 0.63
FYCMKQLLNNIRWLGYSVCR	-1.28 ± 1.1
NWGSRNFCW	-1.26 ± 1.1
SFSANADYGWNDRTNFFSVF	inactive
MDFYYLGSVCHVDLLAQYLV	inactive
SLTCIDWSELQYSNKSFGSM	-0.766 ± 0.79
MDPSICSDSLRFGLYWISRR	3.93 ± 0.12
FLGLYKRYGVEVGLYMLILV	-0.742 ± 0.24
STCFVCFFTYVNSYIVLFT	5.63 ± 0.082
MRDRMVAAARLFRGVSRLAF	-0.268 ± 0.48
IALANVGLED	-0.023 ± 0.33
NNLLYLLLLYVQTSAE	4.49 ± 0.099
SSFIQGCQDSDTNFGGTSSC	inactive
ARPVDMHTQTYALL	-0.284 ± 1.1
HFTTLGILLRCRGLSVLPKV	-0.329 ± 0.39
VMWRTRGTACSLIVRWVGMG	0.822 ± 0.25
DFFRRFI	-0.742 ± 0.48
NVTVAWFVNLSPWF	7.288 ± 0.045

Substance	amyloid nucleation score
GDCQE	1.1 ± 0.23
GEGGANVMCRVAGIIR	1.17 ± 0.17
HSGCCRYLLNNWLYSYMQFY	4.08 ± 0.05
LVGMSANNTVKYSK	0.144 ± 0.36
TGLCHPIGLPDRFRYIIRSL	-0.789 ± 0.55
AGGEEIGGVSRS	-1.07 ± 0.49
GVCSSNWVYVLLDVDDVISR	-0.564 ± 0.39
RKVWLALVIFVCGCFIHYNG	-0.338 ± 0.64
HKDSKTGSIYHQWMDQREIE	-1.1 ± 0.48
SQFSPNDLLLGSWKSDCPWR	-0.917 ± 0.54
WVVLLFKCFFEVLMLPLKVI	-0.29 ± 0.38
FVRQNVSFTLGKYYQWVVGM	-0.933 ± 0.24
GMLKTLSMMHTLIWYFLWDT	-0.62 ± 0.79
DMFRWNSYCSIVMLYCYAYD	4.62 ± 0.063
FVSRRIVAIPLWLLVSEITS	-0.201 ± 0.38
MITVFGLVTFVVIVSTESPI	3.8 ± 0.075
SVVWCWCSEW	0.602 ± 0.81
VFCGFDIVFCKRAFGSKIYL	-0.632 ± 1.1
IFYIVGYFAHLMMWNTRRDG	inactive
VRLFTVGWRSGKNVGNTSDA	-0.263 ± 1.1
CHRLDWINYLCGSHKAIMIV	-0.472 ± 0.5
CHKVWSKEDWATVWSVGGLV	-0.02 ± 1.1
IYSEDGRAMASMIHVSRKHG	0.91 ± 0.43
LRFCYKEATV	0.016 ± 0.65
EFRWYNFLWY	-0.618 ± 1.1

Substance	amyloid nucleation score
RSYDQVRSCHARMREDSNVQ	4.61 ± 0.066
QSHTGWYLVFV	0.05 ± 1
NIRTKILLGY	0.006 ± 0.44
GVARESRAGS	4.96 ± 0.066
LEAYVGLLCLSGRLTFSGKC	2.6 ± 0.1
MIWTKRLDDHELCLGSRSML	-0.739 ± 0.79
LGNIHIWTSV	-1.53 ± 0.49
ATSTITNYGLPNRPCVSYMF	-0.043 ± 0.32
SPSEYLLVAYMSHLTENETV	-0.064 ± 0.45
ISDMS	-0.416 ± 0.28
KTMWLLWINGLHMSSHFRSK	-0.006 ± 0.22
QHYRSYTSILVCSYFYFDAQ	3.12 ± 0.12
FDTVGYSACCCWP	4.78 ± 0.11
ELQRKNTGLKVDLKAHIHRF	5.37 ± 0.063
PADSTMGK	-0.856 ± 0.29
ITYNTS	0.936 ± 0.44
QCGRKFFDNRGGGLITPHPV	0.107 ± 0.42
APADH	2.52 ± 0.15
NVIGENLGGLLNIFDTNVSF	inactive
LLWNVGIVYSHMQVFVMRRY	1.23 ± 0.13
TSWVYDEYVVCLPSWASYVL	-0.509 ± 1.1
CQTHPYYVICFQAVKKCWES	-0.899 ± 0.56
FGLGVCNWIYGCKMDAFNSG	6.223 ± 0.039
VYRLTRVISEWRSILVLVWT	0.328 ± 0.42
TWLSLSLYPFSKSYSISAGF	-0.321 ± 1

Substance	amyloid nucleation score
TCARSVYDNLSLINLTRG	1.73 ± 0.1
WESLVETSSTLFLRECYNVF	-1.86 ± 0.53
ILLFELNAPFVEYSNAFG	3 ± 0.045
YISNYPNVRLALDPTTCAGM	-0.452 ± 0.48
YVTELIDCPGWTRRM	-0.006 ± 0.38
IVQRLPVFKFLMYELCLLNG	-0.894 ± 0.38
SDAVFFLLSNGNRPPRAAMS	0.155 ± 0.29
CRDLKFYAGTRWGKCCMYSA	-0.476 ± 0.32
DLLGIEPTTVCFYFDTDIRH	2.9 ± 0.07
HWCLLNSPNYIEMSLNDFLY	3.62 ± 0.053
GMGQQEVPNWGMATGCGYEE	0.081 ± 1.1
KVSAPHCRLGFWCILC	inactive
YKGEFFYWFKCVLYYKGNT	inactive
FLVYMIVVV	-0.702 ± 1.1
YNYLAMPQMLMEYFISVVVS	2.05 ± 0.089
CWFGCVPDLTTGLGASCGRD	0.606 ± 0.2
GVLKVLLLAPISFTVVCHSS	3.65 ± 0.055
WNFKGRLLRMQLTRAHVNHT	inactive
DRVCGLPNVHSCVCYFAGRN	5.47 ± 0.076
CNHIRSKVKVVVCTGHCAVF	4.62 ± 0.11
VSRSSKMMFFVDHLRYC	1.55 ± 0.58
CLFWG	2.85 ± 0.11
SFKGDDVVYC	-0.052 ± 0.27
KGRVVSCIWGSCPGTSGR	-0.235 ± 1.1
CSKRSQTKVITHICARGEVS	0.827 ± 0.28

Substance	amyloid nucleation score
PALPTVNLNS	-0.475 ± 0.42
KVLRCYGDHFHHANSRTCLR	-1.08 ± 0.76
TDSAFLCHIAWTPFTVH	0.866 ± 0.48
FYHLLLTFGKIVVVQAAWSM	0.981 ± 0.51
DSWNRYNPFCPWKSYVTDSH	-0.926 ± 0.76
LTMCICWLTQCMT	6.283 ± 0.056
IFYNIVE	-1.31 ± 0.78
YPWRYIFLSDPAGLIQTCRF	-1.34 ± 0.54
VIVSMVSE	inactive
MERDCVRVDLFRVSRGGWML	5.863 ± 0.052
KIMYVSQECSGADLLGLYFF	-0.747 ± 0.79
YFLHCQPLVWDTLRVRQMVR	-0.062 ± 0.35
FWDAWSDDRRERWRPCPPRT	1.45 ± 0.38
NGILRRCMSKLSRAWPDGLE	10.71 ± 0.046
GFKDCV	0.263 ± 0.22
RTIANDWHSCFSGRNLHSSW	0.808 ± 0.74
VFFWLQNFEVLWPMEARVWE	4.14 ± 0.096
RGCSVSTDDSVIRLTIAWQY	0.33 ± 0.4
FYNYRNDVIFVFLAHMPANY	2.43 ± 0.13
YADKSKTCNYFSQLP	0.016 ± 1.1
GNFWAFISRRQSRGFLDSAL	-0.412 ± 1.1
YWLPRCKLVFV	0.017 ± 0.25
YWQYCVDANFKQLMQRGKVF	0.728 ± 0.62
LQDAHHSVVCVRQSCYERLG	-0.187 ± 0.65
KAREWQVLVRCKKLTMKYSK	8.227 ± 0.046

Substance	amyloid nucleation score
MIGGDGPRDV	0.745 ± 0.38
IFLEMKDHIIRATFNRLRFC	inactive
EGVKLECVLYVYDHSARRLL	inactive
TFNACNK	0.349 ± 0.18
HEYQFSYDFKFLFGSQIMYM	inactive
RYLCSRVVMSYTCARTPETG	0.43 ± 0.35
LLSSSTIIHLRMCMIHGSFW	0.791 ± 0.67
LTTLKFRFFLIIKRSSAGCC	0.461 ± 0.8
FVTFFLSSHWVIVLDAYSLN	-0.61 ± 1.1
CGVIKHPLSGYYKRASMLCN	-1.52 ± 1.1
NDGLSILVASNMCLSFAWAW	5.109 ± 0.04
SMVTFDYV	inactive
RVSQDSVAGRRSLFMKFVGG	6.022 ± 0.042
SFNGVILRNDVITRVLFDRQ	6.7 ± 0.051
IYHLPNR	5.988 ± 0.035
STTYFDVCMVGFWYNFSTWG	-0.994 ± 1.1
SVLRSNRIVDLSIL	inactive
YIVSSDLTGWGARRSCDFMA	0.571 ± 0.47
HESRGCSHKTNSMCGHLILL	-0.309 ± 0.45
LKLGFRIQLPLLSYGYPFLW	-1.29 ± 0.39
ASQAHSEIMLVVTMNALHQP	7.57 ± 0.076
LMSSLFPLSSACY	-0.545 ± 0.38
RSVFDLMPRLYDYATNHLSY	-0.057 ± 0.34
TSFLNLIFIYLALKRWLILF	4.74 ± 0.06
AVYFYRALDVVMCAFVRKGE	6.01 ± 0.068

Substance	amyloid nucleation score
CLAASSGVLYNEVQSYNTLV	inactive
RVIDLVTCKAHSGWSVLGYM	-0.402 ± 0.37
CIRMLSVIYHCPL	4.85 ± 0.07
KMSYVYP	-0.622 ± 0.41
SISVLYNLRLLCIYNIVVYR	inactive
RTHWELRKNLLCPFVDKIY	-1.2 ± 0.78
YQLNWVKAASCSISLYFTFL	3.87 ± 0.082
HLYLPMYGIMFS	1.27 ± 0.15
FVFRWNSVPIRLRVEQGCVF	0.532 ± 0.47
CVRDTLIETFHSVFNPHRRV	0.983 ± 0.29
NINDEPPNNHMMHTITHKWT	inactive
WNVSGC	-0.474 ± 0.55
LGTIGYVDCFIDSITCYMVL	7.953 ± 0.028
TVCKPIRWLNNEFCDYVSNT	-0.644 ± 0.31
ISEDIIWC	1.24 ± 0.25
LENLHTLC	inactive
ERRTCTRLPNVSRARIR	1.27 ± 0.21
SKLYDVCVHRVWRTWGFQEN	0.027 ± 1
LFRGRMPFPRDSEYLRNRWK	-0.287 ± 0.28
